Paper PMC4498498

B1: CaADH (Clostridium autoethanogenum DSM 10061) (protein)
chain: KGFAMLGINKLGWIEKKNPVPGPYDAIVHPLAVSPCTSDIHTVFEGALGNRENMILGHEAVGEIAEVGSEVKDFKVGDRVIVPCTTPDWRSLEVQAGFQQHSNGMLAGWKFSNFKDGVFADYFHVNDADMNLAILPDEIPLESAVMMTDMMTTGFHGAELADIKMGSSVVVIGIGAVGLMGIAGSKLRGAGRIIGVGSRPVCVETAKFYGATDIVNYKNGDIVEQIMDLTHGKGVDRVIMAGGGAETLAQAVTMVKPGGVISNINYHGSGDTLPIPRVQWGCGMAHKTIRGGLCPGGRLRMEMLRDLVLYKRVDLSKLVTHVFDGAENIEKALLLMKNKPKDLIKSVVTF

Tests used:
Assay in all cases: purified protein
Conditions in all cases: 0.2 mM NADPH, 50 mM Tris-HCl pH 7.5, 1 mM DTT, 25°C
[1] = test system: CC(=O)C(C)O
[2] = substrate: CC(=O)C(C)O; remark: listed apart in the source
[3] = substrate: CC(C)=O
[4] = substrate: CCC(C)=O

| Molecule | Km [1] [mM] | kcat [1] [s⁻¹] | kcat/Km [1] [M⁻¹ s⁻¹] | Km [2] [mM] | kcat [2] [s⁻¹] | kcat/Km [2] [M⁻¹ s⁻¹] | Km [3] [mM] | kcat [3] [s⁻¹] | kcat/Km [3] [M⁻¹ s⁻¹] | Km [4] [mM] | kcat [4] [s⁻¹] | kcat/Km [4] [M⁻¹ s⁻¹] |
| --- | --- | --- | --- | --- | --- | --- | --- | --- | --- | --- | --- | --- |
| CaADH (Clostridium autoethanogenum DSM 10061; S199R) | 34 ± 5 | 95 ± 4 | 2800 |  |  |  |  |  |  |  |  |  |
| B1 |  |  |  | 98 ± 10 | 150 ± 8 | 1600 | 1.0 ± 0.1 | 55 | 55000 | 1.8 ± 0.2 | 37 | 21000 |
